# The RNAGym collection of RNA variant scans (doi:10.1073/pnas.2313332121)
# B1: TPR t1 (parent)
# chain: GACCAAUCUGCCCUCAGAGCUCGAGAACAUCUUCGGAUGCAGAGGAGGCAGGCUUCGGUGGCGCGAUAGCGCCAACGUCCUCAACCUCCAAUGCAUCCCACCACAUGAUGAUGCCUGAAGAGCCUUGGUUUUUUG
# Variants of: B1
# Experiment: polymerase ribozyme fitness, log enrichment relative to wild type (log ratio); higher = more active; in vitro selection for triplet polymerase activity
# Outline: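 To select mutant libraries of each subunit of a heterodimeric triplet polymerase ribozyme, built by PCR and transcribed, each was annealed with a biotinylated primer, partner subunit and triplets, then incubated frozen at −7 °C. Extended constructs were gel-excised, captured on streptavidin beads and amplified by RT-PCR, in one round carried out in triplicate. Illumina sequencing of input and output libraries kept genotypes with ≥10 input reads and ≥1 read per output. Fitness is the base-2 logarithm of genotype enrichment relative to wild-type enrichment, from inverse-variance-weighted replicate averages.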
row,Variant,polymerase ribozyme fitness (log ratio)
1,G42C C56G C88G C114A,-5.36
2,G45C C56G C89A,-2.69
3,U38C C64A,-6.78
4,G35U C56U,-4.99
5,C49A G52U A105U,-3.88
6,G69C U116C G120C,-0.894
7,A2C G44C,-3.44
8,U38C C40U A46U U55A C73U,-3.3
9,U9G C97A,-4.53
10,G52C G58A,-1.15
11,C13A A46G G63C,-2.95
12,A16U G113A,-3.61
13,G69A C102A U112G U132A,-5.6
14,C15A U54G A90U,-3.13
15,G35C C53U C56G G120A,-2.61
16,C13U G44A C49U C86G C102U U106G U112G A121C U131A U133A,-6.07
17,G44U C70A C73U,-2.95
18,C8G C22A C53U C89A C114U G117A G135A,-3.7
19,C11U C70U C101A G128C,-4.09
20,U81A A121C,0.745
21,C70G C73A,-4.66
22,U7A C34A C97U,-1.97
23,C80G A105C U116A C123G,-7.31
24,G63U U78C A108G,-6.17

row,Variant,polymerase ribozyme fitness (log ratio)
1,U9G A50U A74C G113C,-3.6
2,C22A C76U,-4.72
3,C8G G44A C101U,-0.462
4,C3G G60C C86A,-2.81
5,G35U C40U G61A C124U,-4.87
6,A46G C70G,-4.8
7,C56U C98A,-5.17
8,U9G C13U G17U U87C,-0.186
9,C76A G110A C115A,-2.95
10,G52U G58A C79G C85A G107U G113A,-6.66
11,C15U C34A G60C C82G A105G G113U,-6.14
12,A66U,-0.954
13,C70G C85A,-4.06
14,C11A C53U C85A,-3.03
15,U78C C82A C85U G93A,-1.53
16,U9C C56G G60A C88G,-3.64
17,G42U U59A G69U,-0.413
18,A26U G52A,-4.18
19,C8A U67C,-3.31
20,C11U G44C G61U C104U U116C,-2.32
21,G44U C62A C101G,-4.35
22,C15U G71U,-1.38
23,A84U U112C,1.2
24,C64U A95G,-1.52

row,Variant,polymerase ribozyme fitness (log ratio)
1,U9A C72U G110C U130A,-4.28
2,C49U A50G G51A U54G G61A U112C,-0.096
3,C12U A50U,-1.64
4,U59G G122A,-1.35
5,G93U C98U G120C,-3.66
6,C15U G47A G113C A121C,-4.25
7,C101U A121G U126A,1.07
8,A119U C123U,2.17
9,C8A U14A G110A,-1.09
10,G60U C124G,1.38
11,C15A A16U C20A C89G G117U,-3.6
12,U7G G47U G113C,-2.84
13,A5U A6G G69U C86A C102A,-2.02
14,C70U C80U U96A U106C,-4.08
15,C56U C89U,-0.281
16,G61C C94U U130A U131G,-3.54
17,C56G A121U,1.73
18,C22A G71U,-5.61
19,G71C C104A,-3.63
20,A5C C12U G48A,-0.983
21,C85A G113A A121C,-2.05
22,U33G A50G A121C,-4.43
23,A24C G48C U87A C97U C124A,-7.52
24,U54G C80A C88A,-4.43

row,Variant,polymerase ribozyme fitness (log ratio)
1,C89U A90G,0.141
2,G10C C13A C40A G42U G52U C72A,-5.16
3,A26G G44U C56U G120U U130A,-2.98
4,A24G G36U G93C U112A,-5.3
5,U78A G117C A121C,-5.24
6,A16U C124A,-0.305
7,G42U G63A G93U,-3.94
8,C13A C72G A83G A121U C123U,-0.305
9,U14A U33G C34A G47C C70U U112A G127A,-6.98
10,G36U C53G C56A C72G,-3.23
11,C22U U131A,-3.95
12,C13A G63U U112C,-1.77
13,C40U U116A,-3.34
14,A6U G128A,-2.02
15,A29U G48C C53U,-3.4
16,U9A A16U G63A U129C,-1.11
17,G19A G77C,-2.48
18,U33C G60C,-5.53
19,A16G G44A C97G U112C U133A,-4.45
20,C15A U33C A83U C101G G117C,-7.47
21,C62U C114G,-3.11
22,G107U G113A,-3.27
23,C8U C76A C79G C123G,0.407
24,C40U G60A,-0.683

row,Variant,polymerase ribozyme fitness (log ratio)
1,U9A G61U C89U U92A U129A,-3.6
2,C3A A66U G69U,-1.08
3,C3A U21A G71U,-2.65
4,C70U G128A,-2.28
5,C62A A95U,-1.55
6,U14A A24G G61C C89G A91C C101A U112A G122U U125A,-6.22
7,C11G C82G G117C,-2.58
8,G63U C114A,-3.04
9,A29G G63C C104U U106G,-1.63
10,C64A A66C U109C,-6.74
11,G45U G77U C79U C114G,-4.37
12,A27U U81C G120A G135A,-4.49
13,U55C G60A C94A G113U,-4.46
14,U33A C64A G69C,-5.43
15,G44A G110U,-2.5
16,C4G A37U A90C,-2.66
17,C20G G71A A83C,-5.59
18,U33A C53A C62U,-5.53
19,C12G G44U G60U A100U,-0.779
20,C73U A95U A111U,-2.76
21,G51A C53G,-2.12
22,C56A C99U,-2.82
23,G44C G61C A100C U106A,-4.28
24,A83U C114A,-1.1

row,Variant,polymerase ribozyme fitness (log ratio)
1,A41U A66G U92A,-2.28
2,G113U C124G,-1.38
3,A37C C64U C115G,-1.35
4,A27U C79G G127U,-4.93
5,A37U C73G,-1.27
6,U9G A18C G117C,0.268
7,C20U G36C C89G,-3.93
8,A16U C79U G110A,-2.61
9,A46U G127C,-2.68
10,A29G G51U U55A G57U,-3.55
11,U21A G39U,-1.5
12,U14A A24C C49G C72U U92C G113U U116A,-6.78
13,A2U C56A G120C,-2.63
14,C8U C64A U78C C123U,-4.51
15,G44A C72G C79A A83U U112G G122A U132C,-6.81
16,A16U C102A,-3.35
17,G10A A26G A103U C104A A121C,-0.666
18,G51U C62G,-5.98
19,C11G C64U,-0.506
20,A5U U7A C40G U55G C56U G60A U130C,-1.94
21,U55G C56A,-0.837
22,A5C G10A C34A G63U C123U,-4.02
23,G47A G117C,-4.01
24,U14A G63C G113A,-4.74

row,Variant,polymerase ribozyme fitness (log ratio)
1,G51U U55G C102U,-6.73
2,G63C U78A G110U,-3.31
3,U21G G42A A121G,-3.11
4,C40U U59C C85G,-2.73
5,A5U C97G C115U G127A,-6.94
6,C72U U78C U106C G117A A118U U125G,-5.09
7,C3A G45A,-2.42
8,C3A C53G C64U A118G C123U,-1.11
9,U7A G63C U81G,-4.09
10,C34U G110U,-4.07
11,C64U C72U A90C C104A A111G G127A G135A,-4.26
12,G63A C114U,-2.82
13,G47U U116C,-1.74
14,A95G C102U,-1.91
15,C53U G63C C98G,-6.12
16,G47A C88G U112G U133A,-5.65
17,C56G C72U C124U,-0.654
18,A43G A50U G71U,-5.61
19,C56G G60U,-1.44
20,C89A G93A G120A,-1.81
21,C13U C70A C72U,-1.42
22,A6C C70U C73G,-2.81
23,C13A G117A,-4.07
